Measurements published in PMC10057847, “Precision engineering of biological function with large-scale measurements and machine learning” (PLOS ONE, 2023).
Where a chain is given by its changes, count along the chain named. In names and notes the source's numbering stands.

B1: pVER-IPTG-084: LacI variant: A92I S269T N333H L346* (protein, UniProt P03023 1-360, looked up, variant A92I S269T N333H L346*)
Lactose operon repressor: MKPVTLYDVAEYAGVSYQTVSRVVNQASHVSAKTREKVEAAMAELNYIPNRVAQQLAGKQSLLIGVATSSLALHAPSQIVAAIKSRADQLGISVVVSMVERSGVEACKAAVHNLLAQRVSGLIINYPLDDQDAIAVEAACTNVPALFLDVSDQTPINSIIFSHEDGTRLGVEHLVALGHQQIALLAGPLSSVSARLRLAGWHKYLTRNQIQPIAEREGDWSAMSGFQQTMQMLNEGIVPTAMLVANDQMALGAMRAITESGLRVGADITVVGYDDTEDSSCYIPPLTTIKQDFRLLGQTSVDRLLQLSQGQAVKGNQLLPVSLVKRKTTLAPHTQTASPRALADSMQLARQVSRLESGQ
B2: pVER-IPTG-WT(Q291L): LacI variant: Q291L (protein, UniProt P03023 1-360, looked up, variant Q291L)
Lactose operon repressor: MKPVTLYDVAEYAGVSYQTVSRVVNQASHVSAKTREKVEAAMAELNYIPNRVAQQLAGKQSLLIGVATSSLALHAPSQIVAAIKSRADQLGASVVVSMVERSGVEACKAAVHNLLAQRVSGLIINYPLDDQDAIAVEAACTNVPALFLDVSDQTPINSIIFSHEDGTRLGVEHLVALGHQQIALLAGPLSSVSARLRLAGWHKYLTRNQIQPIAEREGDWSAMSGFQQTMQMLNEGIVPTAMLVANDQMALGAMRAITESGLRVGADISVVGYDDTEDSSCYIPPLTTIKLDFRLLGQTSVDRLLQLSQGQAVKGNQLLPVSLVKRKTTLAPNTQTASPRALADSLMQLARQVSRLESGQ
B3: pVER-IPTG-138: LacI variant: S28G T34M Q60R A81S E100K L148V S221N V271L (protein, UniProt P03023 1-360, looked up, variant S28G T34M Q60R A81S E100K L148V S221N V271L)
Lactose operon repressor: B2 Lactose operon repressor with S28G, T34M, Q60R, A81S, E100K, L148V, S221N, V271L, L291Q
B4: pVER-IPTG-WT(G200C): LacI variant: G200C (protein, UniProt P03023 1-360, looked up, variant G200C)
Lactose operon repressor: B2 Lactose operon repressor with G200C, L291Q
B5: pVER-IPTG-081: LacI variant: P285S V301M S308P M347V (protein, UniProt P03023 1-360, looked up, variant P285S V301M S308P M347V)
Lactose operon repressor: B2 Lactose operon repressor with P285S, L291Q, V301M, S308P, M347V
B6: pVER-IPTG-144: LacI variant: V15I F161I A266T K290R M347I (protein, UniProt P03023 1-360, looked up, variant V15I F161I A266T K290R M347I)
Lactose operon repressor: B2 Lactose operon repressor with V15I, F161I, A266T, K290R, L291Q, M347I
B7: pVER-IPTG-206: LacI variant: V95M A337T (protein, UniProt P03023 1-360, looked up, variant V95M A337T)
Lactose operon repressor: B2 Lactose operon repressor with V95M, L291Q, A337T
B8: pVER-IPTG-WT(I83M): LacI variant: I83M (protein, UniProt P03023 1-360, looked up, variant I83M)
Lactose operon repressor: B2 Lactose operon repressor with I83M, L291Q
B9: pVER-IPTG-WT(F161V): LacI variant: F161V (protein, UniProt P03023 1-360, looked up, variant F161V)
Lactose operon repressor: B2 Lactose operon repressor with F161V, L291Q
B10: pVER-IPTG-WT(S70R/V271M): LacI variant: S70R V271M (protein, UniProt P03023 1-360, looked up, variant S70R V271M)
Lactose operon repressor: B2 Lactose operon repressor with S70R, V271M, L291Q
B11: pVER-IPTG-002(V136E): LacI variant: V96E V136E T154I S158R V238D M254I V264I (protein, UniProt P03023 1-360, looked up, variant V96E V136E T154I S158R V238D M254I V264I)
Lactose operon repressor: B2 Lactose operon repressor with V96E, V136E, T154I, S158R, V238D, M254I, V264I, L291Q
B12: pVER-IPTG-004(V136E): LacI variant: A87P V136E V301M E357G (protein, UniProt P03023 1-360, looked up, variant A87P V136E V301M E357G)
Lactose operon repressor: B2 Lactose operon repressor with A87P, V136E, L291Q, V301M, E357G
B13: pVER-IPTG-008: LacI variant: S61L I237T T258S A266T I289F R351* (protein, UniProt P03023 1-360, looked up, variant S61L I237T T258S A266T I289F R351*)
Lactose operon repressor: MKPVTLYDVAEYAGVSYQTVSRVVNQASHVSAKTREKVEAAMAELNYIPNRVAQQLAGKQLLLIGVATSSLALHAPSQIVAAIKSRADQLGASVVVSMVERSGVEACKAAVHNLLAQRVSGLIINYPLDDQDAIAVEAACTNVPALFLDVSDQTPINSIIFSHEDGTRLGVEHLVALGHQQIALLAGPLSSVSARLRLAGWHKYLTRNQIQPIAEREGDWSAMSGFQQTMQMLNEGTVPTAMLVANDQMALGAMRAISESGLRVGTDISVVGYDDTEDSSCYIPPLTTFKQDFRLLGQTSVDRLLQLSQGQAVKGNQLLPVSLVKRKTTLAPNTQTASPRALADSLMQLAQVSRLESGQ
B14: pVER-IPTG-003: LacI variant: V52M H74Y V119I G200V R207H L262M K290R Q306H A337V Q352* (protein, UniProt P03023 1-360, looked up, variant V52M H74Y V119I G200V R207H L262M K290R Q306H A337V Q352*)
Lactose operon repressor: MKPVTLYDVAEYAGVSYQTVSRVVNQASHVSAKTREKVEAAMAELNYIPNRMAQQLAGKQSLLIGVATSSLALYAPSQIVAAIKSRADQLGASVVVSMVERSGVEACKAAVHNLLAQRISGLIINYPLDDQDAIAVEAACTNVPALFLDVSDQTPINSIIFSHEDGTRLGVEHLVALGHQQIALLAGPLSSVSARLRLAVWHKYLTHNQIQPIAEREGDWSAMSGFQQTMQMLNEGIVPTAMLVANDQMALGAMRAITESGMRVGADISVVGYDDTEDSSCYIPPLTTIRQDFRLLGQTSVDRLLHLSQGQAVKGNQLLPVSLVKRKTTLAPNTQTVSPRALADSLMQLARVSRLESGQ

System: eYFP under the control of the lactose operator (lacO)
Experiment: in vivo dose-response curves of LacI variants to IPTG measured with flow cytometry (eYFP output), fit to the Hill equation
Format: cell-based, E. coli
Settings: Hill fit of cytometry data; for n: the Hill coefficient: IPTG dose-response; for log_g0: the base-10 logarithm of G0 (in MEF): basal output; for log_g0: the base-10 logarithm of G0 (in MEF) / log_ginf: the base-10 logarithm of G∞ (in MEF): value is log10; for log_ginf: the base-10 logarithm of G∞ (in MEF): saturating output
Description: Dose-response curves were measured with flow cytometry using E. coli MG1655Δlac transformed with variants of the pVER plasmid, described previously. The plasmid contained different variants of the lacI coding DNA sequence (CDS), as described in the text, and an expression cassette with enhanced yellow fluorescent protein (eYFP) under the control of the lactose operator (lacO). The lacI CDS was verified with Sanger sequencing for each variant.
All cultures were grown in a rich M9 media (3 g/L KH2PO4, 6.78 g/L Na2HPO4, 0.5 g/L NaCl, 1 g/L NH4Cl, 0.1 mmol/L CaCl2, 2 mmol/L MgSO4, 4% glycerol, and 20 g/L casamino acids) supplemented with 50 μg/mL kanamycin.
For flow cytometry measurements, E. coli cultures were grown in a laboratory automation system that included an automated liquid handler (Hamilton, STAR), an automated plate sealer (4titude, a4S), an automated de-sealer (Brooks, XPeel), and two multi-mode plate readers (BioTek, Neo2SM).
Cultures were grown in clear polystyrene 96-well plates with 1.1 mL square wells (4titude, 4ti-0255). The culture volume per well was 0.5 mL. Before incubation, each 96-well growth plate was sealed by the automated plate sealer with a gas permeable membrane (4titude, 4ti-0598). Growth plates were incubated in one of the multi-mode plate readers at 37°C with a 1°C gradient applied from the bottom to the top of the incubation chamber to minimize condensation on the inside of the membrane. The plate readers were set for double-orbital shaking at 807 cycles per minute. Optical density at 600 nm (OD600) was measured every 5 minutes during incubation, with continuous shaking applied between measurements (optical density at 700 nm and YFP fluorescence were also measured every 5 minutes). After incubation, the automated de-sealer was used to remove the gas-permeable membrane from each 96-well plate to enable automated passaging of cultures and sample preparation for flow cytometry measurements.
For each measurement, starter cultures were prepared from glycerol freezer stock in 5 mL of rich M9 media in a 14 mL snap-cap culture tubes. Starter cultures were incubated at 37°C with orbital shaking at 300 rpm for between 4 h and 24 h prior to loading the automation system. The automation system then prepared 96-well growth plates, sealed and de-sealed the growth plates, incubated the growth plates, and prepared flow cytometry sample plates. The automated culture protocol consisted of the following steps: […]

Molecule	EC50 (IPTG as ligand, posterior mean, read-out: log_ec50: the base-10 logarithm of EC50 (converted))	n: the Hill coefficient	log_g0: the base-10 logarithm of G0 (in MEF) (posterior mean)	log_ginf: the base-10 logarithm of G∞ (in MEF) (posterior mean)
B1	1520 nM	1.53	3.264 MEF	4.457 MEF
B2				4.407 MEF
B3				4.407 MEF
B4				4.489 MEF
B5				4.489 MEF
B6		1.459		
B7		1.594		
B8				4.268 MEF
B9		1.594		
B10		1.459		4.268 MEF
B11		2.088	4.551 MEF	1.924 MEF
B12		1.631	4.54 MEF	1.925 MEF
B13		1.488	4.293 MEF	3.274 MEF
B14		0.7133	4.508 MEF	3.573 MEF
